A short description of data set [1]: Blood concentration of long-acting peptide (Semaglutide) after microporation patch, Sub Q or oral administration. The class given is in vivo, hairless Guinea pigs. The source says: Table 1 below provides data of three groups of microporation values used to create pathways in the skin in hairless Guinea pigs before applying the patch 102 containing a long-acting peptide once weekly, for example Semaglutide. Table 2 below provides data of six (6) groups of drug administration: three (3) groups for the patch 102, one (1) group for oral administration of the long-acting peptide, and two (2) groups for injected administration of the long-acting peptide.
Groups 1-3 in Tables 1 and 2 correspond to combinations of patches 102 and the microporation parameters for a particular administration. For example, the group 1 microporation parameters of Table 1 apply in conjunction with the administration of the patch 102 according to the parameters in Group 1 of Table 2. Accordingly, the patch 102 of group 1 has the nonwoven matrix, water holding material thickness of 38 μm, water holding material weight of 12 g/m^2, and WHC of […]. The patch 102 of group 1 includes a drug of 1 mg and a total solid weight of 3.25 mg with an area of 0.5 cm^2. This patch 102 is applied to an area of the skin having 200 pathways created according to the group 1 microporation parameters, where the energy applied to the microporation device is 5.2 mJ/filament, the filaments 200 are made from stainless steel and have a treated area of 10% per square centimeter of skin, where the filaments 200 treat an area of 0.5 cm^2. Similarly, group 2 of the patch 102 parameters applies to group 2 of the microporation parameters and group 3 of the patch 102 parameters applies to group 3 of the microporation parameters.
The graph 1000 includes the concentration of the long-acting peptide in nanograms/milliliter (ng/mL) along the y-axis and time in hours (hr) along the x-axis. […] The line 1002 represents the group 1 microporation parameters and the group 1 patch 102 parameters. The line 1004 represents the group 2 microporation parameters and the group 2 patch 102 parameters. The line 1006 represents the group 3 microporation parameters and the group 3 patch 102 parameters. Each of the three lines 1002, 1004, and 1006 follow the same general trend. For each of the groups 1-3 of parameters, the concentrations of the long-acting peptide generally increase to a maximum concentration relatively quickly before gradually lessening, finally reaching a concentration of 0.
The graph 1020 includes the concentration of the long-acting peptide in nanograms/milliliter (ng/mL) along the y-axis and time in hours (hr) along the x-axis. […] The line 1022 represents the group 4 injected drug. The line 1024 represents the group 5 injected drug. The line 1026 represents the group 6 […] drug. Each of the lines 1022 and 1024 follow the same general trend, rising to a highest level of concentration before gradually falling and approaching a concentration level of 0. […] The parameters of group 5 are shown by line 1024 to have a higher concentration level spike for the duration of the bioavailability of the long-acting polypeptide in the body as compared to the parameters of group 4 shown by line 1022.
The graph 1040 is zoomed out view of the graph 1000, giving a higher level view of the relationships of the lines 1002, 1004, and 1006. Similarly, the graph 1060 is a zoomed out view of the graph 1020, showing that the line 1026 (oral consumption of the long-lasting peptide) hovers around a concentration of 10 ng/mL and is not 0, as it appears from the graph 1020.
Based on the graphs 1000, 1020, 1040, and 1060, the area under the curve for each of groups 1-6 is shown below in Table 3: […]

A short description of data set [2]: Blood concentration of long-acting protein (Etanercept) after patch with or without microporation or Sub Q. The class given is in vivo, rats. The source says:
Table 4 below provides data of one group (group 1) of a patch 102 containing a long-acting protein, for example Etanercept, applied without any microporation, three groups (groups 2-4) of microporation values for use with patches 102, and one group (group 5) of injected administration of the long-acting protein. Table 6 below provides details of the components of the patch or drug formulation administered according to the groups 1-5.
The graph 1100 includes the concentration of the long-acting protein in nanograms/milliliter (ng/mL) along the y-axis and time in hours (hr) along the x-axis. […] The line 1102 represents the group 1 patch 102 with no microporation. The line 1104 represents the group 2 microporation parameters and the group 2 patch 102 parameters. The line 1106 represents the group 3 microporation parameters and the group 3 patch 102 parameters. The line 1108 represents the group 4 microporation parameters and the group 4 patch 102 parameters. The line 1110 represents the injected long-acting protein. Each of the three lines 1104, 1106, and 1108 follow the same general trend. For each of the groups 2-4 of parameters, the concentrations of the long-acting protein generally increase to a maximum concentration relatively quickly before gradually lessening, finally reaching a concentration of 0. The parameters of groups 3 and 4 are shown by line 1106 and 1108 to have the highest concentration level spike while the group 4 parameters result in the higher long term concentration. The parameters of group 2 are shown by line 1104 to have a generally lower concentration levels throughout as compared to the groups 3 and 4 parameters. The group 1 and group 5 administrations are lower than all of the group 2-4 administrations. Thus, for the long-acting protein, the patch administration at skin locations treated with microporation result in better bioavailabilities than even the injected administration of the drug, as detailed in Table 7 below. The graphs 1100 and 1120 also show what effects the additional components in the drug formulation (for example, sucrose, urea, and so forth) may have on the bioavailability and blood concentrations of the long-acting protein in rats.
Based on the graphs 1100 and 1120, the area under the curve for each of groups 1-5 is shown above in Table 7. […] The administrations using the patches 102 with the different microporation parameters are shown to result in the greatest concentration levels of the drug available for the longest durations.

Data set [3] in a line: Blood concentration of long-acting protein (Etanercept), patch matrix comparison (Tables 8-10, FIG. 12). It is filed as in vivo, rats. The conditions noted are these: for peak concentration: 5.0 mg + sucrose 10 mg, 400 pores, 5.2 mJ/filament. The source says:
Table 8 below provides data of two groups (groups 1 and 2) of microporation values for use with a patch 102 containing a long-acting protein, for example Etanercept. Table 10 below provides details of the components of the patch or drug formulation administered according to the groups 1 and 2. As shown, both groups have the same drug formulation of the long-acting protein and sucrose in the same quantities.
The graph 1200 includes the concentration of the long-acting protein in nanograms/milliliter (ng/mL) along the y-axis and time in hours (hr) along the x-axis. […] The line 1202 represents the group 1 patch 102 with microporation parameter according to Table 8 and patch 102 parameters according to Table 9. The line 1204 represents the group 2 patch 102 with microporation parameter according to Table 8 and patch 102 parameters according to Table 9. The two lines 1202 and 1204 follow different trends. The line 1202 spikes quickly to a peak of above 800 ng/mL and then remains generally between 500 and 700 ng/mL until at least about 70 hours. […] This highlights the effects that the patch 102 parameters can have on the administration of the drug formulation.

Setting [4] is: group 1: patch 5.0 mg + sucrose 5 mg, without microporation.
The mark [5] stands for this setting: group 2: patch 5.0 mg + sucrose 5 mg, 400 pores, 5.2 mJ/filament.
[6] abbreviates: group 3: patch 5.0 mg + sucrose 5 mg + urea 5 mg, 400 pores, 5.2 mJ/filament.
[7] abbreviates: group 4: patch 5.0 mg + sucrose 5 mg + disodium citrate 5 mg, 400 pores, 5.2 mJ/filament.

The results in this text go back to patent US12605539B2, “Methods and systems for delivering drugs through skin of a body” (PASSPORT TECHNOLOGIES, INC., priority 2019, dated 2026).

In general, AUC refers to concentration integrated over time. For orientation: Cmax means the highest concentration seen after dosing.

`CC[C@H](C)[C@H](NC(=O)[C@H](Cc1ccccc1)NC(=O)[C@H](CCC(=O)O)NC(=O)[C@H](CCCCNC(=O)COCCOCCNC(=O)COCCOCCNC(=O)CC[C@H](NC(=O)CCCCCCCCCCCCCCCCC(=O)O)C(=O)O)NC(=O)[C@H](C)NC(=O)[C@H](C)NC(=O)[C@H](CCC(N)=O)NC(=O)CNC(=O)[C@H](CCC(=O)O)NC(=O)[C@H](CC(C)C)NC(=O)[C@H](Cc1ccc(O)cc1)NC(=O)[C@H](CO)NC(=O)[C@H](CO)NC(=O)[C@@H](NC(=O)[C@H](CC(=O)O)NC(=O)[C@H](CO)NC(=O)[C@@H](NC(=O)[C@H](Cc1ccccc1)NC(=O)[C@@H](NC(=O)CNC(=O)[C@H](CCC(=O)O)NC(=O)C(C)(C)NC(=O)[C@@H](N)Cc1cnc[nH]1)[C@@H](C)O)[C@@H](C)O)C(C)C)C(=O)N[C@@H](C)C(=O)N[C@@H](Cc1c[nH]c2ccccc12)C(=O)N[C@@H](CC(C)C)C(=O)N[C@H](C(=O)N[C@@H](CCCNC(=N)N)C(=O)NCC(=O)N[C@@H](CCCNC(=N)N)C(=O)NCC(=O)O)C(C)C` [Semaglutide]: the BA in data set [1] (group 1: patch 1 mg (2 mg/cm^2), 0.5 cm^2, 200 pores, 5.2 mJ/filament) was 63.6%; in data set [1] (group 2: patch 2 mg (2 mg/cm^2), 1.0 cm^2, 400 pores, 5.2 mJ/filament) it was 47.0%; in data set [1] (group 3: patch 4 mg (2 mg/cm^2), 2.0 cm^2, 800 pores, 5.2 mJ/filament), 31.8%; in data set [1] (group 4: Sub Q 0.5 mg) it was 81.8%; in data set [1] (group 5: Sub Q 1.0 mg) it was 100.0%; in data set [1] (group 6: Oral 2.0 mg), 0.0%.

Regarding Etanercept, the AUC in data set [2] (setting [4]) was determined as 0.172 µg·h/mL; in data set [2] (setting [5]) it was 208.5929 µg·h/mL; in data set [2] (setting [6]), 604.0884 µg·h/mL; in data set [2] (setting [7]), 712.8251 µg·h/mL; in data set [2] (group 5: Sub Q 1.0 mg), 121.5723 µg·h/mL. Further, the BA came out at 0.0% in data set [2] (setting [4]); 94.3% in data set [2] (setting [5]); 99.4% in data set [2] (setting [6]); 117.2% in data set [2] (setting [7]); 100.0% in data set [2] (group 5: Sub Q 1.0 mg). For the same compound, the Cmax was determined as 9.6 ng/mL in data set [2] (setting [4]); 5189.0 ng/mL in data set [2] (setting [5]); 16578.6 ng/mL in data set [2] (setting [6]); 16982.4 ng/mL in data set [2] (setting [7]); 1298.7 ng/mL in data set [2] (group 5: Sub Q 1.0 mg). Besides, the peak concentration entry is on record as “above 800 ng/mL” in data set [3] (group 1: matrix 38 μm, 12 g/m^2, WHC 4 mg/cm^2) and “about 275 ng/mL” in data set [3] (group 2: matrix 336 μm, 50 g/m^2, WHC 30 mg/cm^2). Besides, in data set [3] (group 2 (WHC 30 mg/cm^2)), the “concentration at about 70 hours” value is listed as “below 100 ng/mL”. Moreover, the “time of peak concentration” value in data set [3] (group 2 (WHC 30 mg/cm^2)) is reported as “about 32 hours”.
